Assay results reported in article PMC4200520.

How the values were obtained:
[1] = biological target: TD4, minimal TACC domain (TD) fragment of XTACC3 (Xenopus); test: ITC; TD4 (10–20 μM) in the cell, peptide (400–500 μM) in the syringe; 25 °C; 20 mM HEPES pH 7.5, 150 mM NaCl, 0.25 mM TCEP; one-site model
[2] = biological target: TD4, minimal TACC domain (TD) fragment of XTACC3 (Xenopus); test: SPR; TD4 (50 μg/ml) amine-coupled to a CM5 chip, peptides pCt or pCt_KD as analytes 10–250 μM; BIAcore X100, 20 °C, HBS (100 mM HEPES, 150 mM NaCl, 0.05% P20, pH 7.4); steady-state fit, single-site model
[3] = biological target: TD4, minimal TACC domain (TD) fragment of XTACC3 (Xenopus); test: SEC-MALS; TD4 with saturating concentrations of pCt; Superdex 200 10/300 GL, 20 mM Tris/HCl, 150 mM NaCl, 0.25 mM TCEP, pH 8.0

STNIDDLKKRLERIKS [pCt, synthetic peptide of XMAP-Ct residues 46-61]
Kd [1]: 11 µM | stoichiometry N [1]: 0.5 TD4:pCt | Kd [2]: 30 µM | stoichiometry N (pCt per TD4 dimer) [3]: 4
